Experimental data reported in paper PMC6853979, “Structures of GapR reveal a central channel which could accommodate B-DNA”.

Legend:
[1] = molecular target: GapR (full length, Caulobacter crescentus) (Caulobacter crescentus); assay: crystal structure; GapR or GapRΔ1-11 crystallised with 19-bp dsDNA (DNA not seen in the maps), sitting drop, room temperature, ammonium sulfate and PEG 3350; tetramer formed by crystallographic symmetry
[2] = molecular target: GapR (full length, Caulobacter crescentus) (Caulobacter crescentus); assay: SEC; 6.25 μM protein (calculated as tetramer); GapR without and with 20 μM 19 bp DNA on Superdex 200 Increase 10 300 GL; GapR and GapR6KtoE on HiLoad 16/600 Superdex 200 pg against protein standards
[3] = molecular target: GapR (full length, Caulobacter crescentus) (Caulobacter crescentus); assay: SEC-MALS; 50 μl of GapR at 0.5 mM (calculated as tetramer), no DNA, Superdex-200 Increase 10 300 GL, SEC buffer (20 mM HEPES pH 7.4, 200 mM NaCl, 0.2 mM TCEP)
[4] = molecular target: GapRΔ1-11 (Caulobacter crescentus); assay: crystal structure; GapR or GapRΔ1-11 crystallised with 19-bp dsDNA (DNA not seen in the maps), sitting drop, room temperature, ammonium sulfate and PEG 3350; tetramer formed by crystallographic symmetry
GapR = molecular target: T1, GapR (Caulobacter crescentus, UniProt Q9A385 1-89); assay: EMSA; 0.425 uM tetramer, 1.7 uM DNA; EMSA: 10 mM Tris pH 7.5, 50 mM NaCl, 1 mM EDTA; 8% gel in 0.5x TBE pH 8.3 at 4 C; conditions: protein: recombinant; tags: N-terminal His8 cleaved by TEV (vector residues may remain); chain copies: 4; blunt
T1 sequence: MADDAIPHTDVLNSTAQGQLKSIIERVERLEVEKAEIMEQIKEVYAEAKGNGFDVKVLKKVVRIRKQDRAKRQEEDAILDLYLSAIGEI

GapR (full length, Caulobacter crescentus) (natural protein)
stoichiometry N [1]: 4
stoichiometry N [2]: 4
stoichiometry N [3]: 4

GapRΔ1-11 (domain or fragment)
stoichiometry N [4]: 4

B1: 19 bp oligonucleotide (19mer) (dsDNA)
DNA 1: GTTAAGCAACCGTTAACGG
DNA 2: CCGTTAACGGTTGCTTAAC
binding result (GapR): binds
